Results on one substance are retold here after PMC10615762.

The target in this experiment is prefusion-stabilized SARS-CoV-2 spike protein (S-clamp) (SARS-CoV-2). The experiment can be described thus: SEC.

Broadly, the stoichiometry N is a count of units in the complex or per binding partner. Consider “prefusion-stabilized SARS-CoV-2 spike protein (S-clamp)”, for which the stoichiometry N was found to be 3.
